Test results reported in patent publication US20190010224A1 (Merck Sharp & Dohme, published 2019).

Assays:
recombinant human IL-10 [1] = molecular target: T1, recombinant human IL-10 (human, UniProt P22301 19-178); assay: binding ELISA on immobilized recombinant human IL-10; potency relative to reference material; sample stored at 5 C, 6 months
T1 construct: Immobilized on ELISA microtiter plates; also called interleukin-10
Method: (§1) In the ELISA assay, individual dose response curves were generated by using a serial dilution of anti-IL10 reference material or test samples binding to recombinant human IL-10 immobilized on ELISA microtiter plates. Then, by using a SoftMax Pro GxP four-parameter logistic curve fitting analysis, EC₅₀ values of reference material as a control and test samples were determined and a reference-to-sample EC₅₀ ratio was calculated as relative potency for a test sample. Final results were reported as potency relative to reference material.

recombinant human IL-10 [2] = molecular target: T1, recombinant human IL-10; assay: binding ELISA on immobilized recombinant human IL-10; potency relative to reference material; sample stored at 5 C, 1 month
Method: as §1

recombinant human IL-10 [3] = molecular target: T1, recombinant human IL-10; assay: binding ELISA on immobilized recombinant human IL-10; potency relative to reference material; sample stored at 5 C, 3 months
Method: as §1

recombinant human IL-10 [4] = molecular target: T1, recombinant human IL-10; assay: binding ELISA on immobilized recombinant human IL-10; potency relative to reference material; sample stored at 5 C, initial time point
Method: as §1

T1 sequence (P22301 19-178 limits assumed): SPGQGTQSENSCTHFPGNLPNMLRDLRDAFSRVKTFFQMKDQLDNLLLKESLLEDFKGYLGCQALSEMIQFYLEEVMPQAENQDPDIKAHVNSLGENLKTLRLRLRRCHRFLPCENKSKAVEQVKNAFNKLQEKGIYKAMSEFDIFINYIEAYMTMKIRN

Potency Binding ELISA/Biological Potency, % (reference-to-sample EC50 ratio) (recombinant human IL-10 [1]): 105% | Potency Binding ELISA/Biological Potency, % (reference-to-sample EC50 ratio) (recombinant human IL-10 [2]): 115% | Potency Binding ELISA/Biological Potency, % (reference-to-sample EC50 ratio) (recombinant human IL-10 [3]): 99% | Potency Binding ELISA/Biological Potency, % (reference-to-sample EC50 ratio) (recombinant human IL-10 [4]): 101%
B1: anti-IL-10 hum12G8 (antibody, human IgG1, kappa, V domains shown)
VH: QVQLVESGGGVVQPGRSLRLSCAASGFTFSDYHMAWVRQAPGKGLEWVASITLDATYTYYRDSVRGRFTISRDNSKNTLYLQMNSLRAEDTAVYYCARHRGFSVWLDYWGQGTLVTVSS
VL: DIQMTQSPSSLSASVGDRVTITCKTSQNIFENLAWYQQKPGKAPKLLIYNASPLQAGVPSRFSGSGSGTDFTLTISSLQPEDFATYYCHQYYSGYTFGPGTKLELKR
notes: Humanized antibody expressed in CHO cells; It was tested as 50 mg/mL drug product in 10 mM histidine, 7% sucrose, 0.02% PS-80, pH 5.5; also called humanized 12G8; hu12G8
